Columns and labels:
CD19-Fc (R&D Biosystems) = target: T1, CD19-Fc (R&D Biosystems) (UniProt P15391 20-291); experiment: flow cytometry, CAR T cells stained with CD19-Fc and CD20-biotin
T1 construct: Bought staining reagent, 1 ug/sample; also called recombinant CD19; not shown: Fc part of the bought reagent (detected with goat anti-human Fc-gamma)
T1 sequence (looked up): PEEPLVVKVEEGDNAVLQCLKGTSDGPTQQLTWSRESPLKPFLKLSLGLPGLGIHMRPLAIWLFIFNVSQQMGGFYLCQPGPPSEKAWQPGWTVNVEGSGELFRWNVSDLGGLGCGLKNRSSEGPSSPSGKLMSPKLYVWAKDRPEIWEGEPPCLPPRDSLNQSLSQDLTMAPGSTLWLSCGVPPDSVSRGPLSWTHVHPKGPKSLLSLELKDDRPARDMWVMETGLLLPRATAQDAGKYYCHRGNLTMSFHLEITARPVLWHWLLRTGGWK
Method: (§1) Cells were washed twice and resuspended in 200 ul Staining Buffer before quantitative analysis by flow cytometry.

[1] = target: T2, CD20-biotin (Miltenyi Biotec) (UniProt P11836 142-188, limits assumed, biotin (site not stated)); experiment: as above
T2 construct: Bought staining reagent, 0.1 ug/sample, detected with streptavidin conjugate; also called recombinant CD20; CD20 biotin reagent
T2 chain (looked up): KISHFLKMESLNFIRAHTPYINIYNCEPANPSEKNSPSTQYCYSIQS
Method: as §1

B1: CAR LTG2200 (LP-2200-CD8 TM-41BB-CD3zeta) (other)
chain: QVQLQQSGPGLVKPSQTLSLTCAISGDSVSSNSAAWNWIRQSPSRGLEWLGRTYYRSKWYNDYAVSVKSRITINPDTSKNQFSLQLNSVTPEDTAVYYCAREVTGDLEDAFDIWGQGTMVTVSSGGGGSGGGGSGGGGSDIQMTQSPSSLSASVGDRVTITCRASQTIWSYLNWYQQRPGKAPNLLIYAASSLQSGVPSRFSGRGSGTDFTLTISSLQAEDFATYYCQQSYSIPQTFGQGTKLEIKAAATTTPAPRPPTPAPTIASQPLSLRPEACRPAAGGAVHTRGLDFACDIYIWAPLAGTCGVLLLSLVITLYCKRGRKKLLYIFKQPFMRPVQTTQEEDGCSCRFPEEEEGGCELRVKFSRSADAPAYQQGQNQLYNELNLGRREEYDVLDKRRGRDPEMGGKPRRKNPQEGLYNELQKDKMAEAYSEIGMKGERRRGKGHDGLYQGLSTATKDTYDALHMQALPPR
notes: Chimeric antigen receptor with the m971 anti-CD22 scFv on primary human T cells; The entry includes the leader peptide; also called 22-BBz; CAR22 LTG2200
B1: no binding (tested: 1 ug/sample) (CD19-Fc (R&D Biosystems)); no binding (tested: 0.1 ug/sample) [1].

Source: patent publication US20200231648A1 (LENTIGEN TECHNOLOGY, published 2020)
